Measurements from US8691225B2, “Antibodies against the ectodomain of ErbB3 and uses thereof” (Merrimack Pharmaceuticals, Inc., priority 2007, dated 2014).
Like-named read-outs stand apart in the source and are kept apart here.

Experiments:
AdrR spheroids = experiment: spheroid growth assay; assay type: cell-based, human; details: 8 uM
Method: (§1) Subconfluent cells are trypsinized, counted, and resuspended in filtered medium. The cell concentration is adjusted to 100,000 cells/ml, and one 20 ul drop (containing 2000 cells) is added to each ring on the underside of the lid of a 96-well plate. The lids with these hanging droplets are then placed back on the original 96-well plate, which contained 100 ul of PBS in each well to maintain moisture. Four days after initial plating, the hanging droplets containing the spheroids are replated into new 96-well plates. This replating involves transferring the lid containing the hanging droplets to a fresh 1% agarose/RPMI-coated 96-well plate that contains 150 ul of medium per well. The plate and lid are then centrifuged together at 500 rpm for 1 minute to transfer the spheroid-containing drops from the lids to the wells. Plates are then further incubated at 37° C. in a humidified CO2 incubator. Spheroids are photographed in an inverted phase contrast microscope. A micrometer scale is also photographed at the same magnification to determine spheroid size. The diameter of the spheroids is determined using METAMORPH image analysis software (MDS Analytical Technologies).
(§2) The diameters of the spheroids are measured using light microscopy (10× objective) at day 1 and day 13.

DU145 spheroids = experiment: spheroid growth assay; assay type: cell-based, human; details: DU145, 8 uM, 3.4 nM HRG
Method: as §1, §2

[1] = test system: heregulin-mediated phosphorylation of ErbB3 and AKT in OVCAR8 cells; experiment: heregulin-mediated signaling ELISA (pErbB3, pAKT); assay type: cell-based, human; details: for IC50: IgG2 isotype, 5 nM HRG
Method: (§3) MALME-3M cells and OVCAR8 cells are separately seeded in 96 well tissue culture plates (35,000 cells per well) and grown in RPMI-1640 media supplemented with antibiotics, 2 mM L-glutamine and 10% FBS for 24 hours at 37° C. and 5% carbon dioxide. Cells are serum-starved in RPMI-1640 media with antibiotics and 2 mM L-glutamine for 24 hours at 37° C. and 5% carbon dioxide. […] Controls are HRG without added antibody and untreated cells (no HRG and no Ab). Cells are washed with cold PBS then harvested with mammalian protein extract (M-PER) lysis buffer (Pierce, 78505) containing 150 mM NaCl, 5 mM sodium pyrophosphate (Sigma, 221368-100G), 10 uM bpV(phen) (Calbiochem, 203695), 50 μM oxophenylarsine (Calbiochem, 521000), 1 mM sodium orthovanadate (Sigma, 56508-10G), and protease inhibitor cocktail (Sigma, P2714). Cell lysates are diluted two-fold with 4% bovine serum albumin in PBST (0.2% tween-20), then analyzed by ELISA for phosphorylation of either ErbB3, or AKT (a downstream effector of ErbB3).
(§4) In order to test for AKT phosphorylation, lysates are run on an ELISA plate with a capture antibody specific to AKT and biotinylated detection antibody specific to phospho-serine 473 of phospho-AKT (pAKT). Signal is generated with streptavidin conjugated to horseradish-peroxidase reacted with SUPERSIGNAL ELISA Pico chemiluminescent substrate (Pierce, 37070). In order to assay for ErbB3 phosphorylation, lysates are run on an ELISA plate with a capture antibody specific for ErbB3 and an anti-phosphotyrosine detection antibody conjugated to horseradish-peroxidase. This is then reacted with the same chemiluminescent substrate. Luminescent signal on the ELISAs is measured using a luminometer.

[2] = test system: heregulin-mediated phosphorylation of ErbB3 and AKT in MALME-3M cells; experiment: heregulin-mediated signaling ELISA (pErbB3, pAKT); assay type: cell-based, human; details: for IC50: IgG2 isotype, 5 nM HRG
Method: as §3, §4

[3] = target: T1, ErbB3 receptors on MALME-3M cells (Homo sapiens, UniProt P21860); experiment: downregulation of ErbB3 receptors on MALME-3M cells by FACS; assay type: cell-based; details: 100 nM
T1 construct: ErbB3 expressed on MALME-3M melanoma cells; host or cells: MALME-3M melanoma cells
Method: MALME-3M cells are trypsinized from a 15 cm dish and washed once with RPMI+10% FBS. Cell pellets are resuspended at a density of 1×10^6 cells per ml. Two aliquots of 2×10^5 cells are added to separate wells in a 12-well tissue culture plate and each resuspended in a final volume of 800 ul RPMI+10% FBS.
Cells are washed twice with 1 ml BD stain buffer and incubated with 100 ul of a 1:500 dilution of Alexa 647-labeled goat anti-human Alexa 647 for 45 minutes on ice. Cells are then washed and resuspended in 300 ul BD stain buffer+0.5 ug/ml propidium iodide. Analysis of 10,000 cells is done in a FACSCALIBUR flow cytometer using the FL4 channel.

[4] = test system: HB-EGF binding to AdrR cells; experiment: biotinylated HB-EGF binding to AdrR cells by FACS; assay type: cell-based, human; details: 12.5 μM antibodies, 200 nM HB-EGF
Method: After 30 minutes, 50 μl of 400 nM biotinylated HB-EGF is added to the cells and incubated for another 30 minutes on ice. This yields a final concentration of 12.5 μM antibodies and 200 nM HB-EGF. Cells are then washed twice with 500 μl BD stain buffer and incubated with 100 μl of a 1:200 dilution of streptavidin-PE (PE=phycoerythrin) (Invitrogen) in BD stain buffer for 45 minutes. Finally, cells are washed twice, resuspended in 300 μl of BD stain buffer and analyzed in a FACSCALIBUR flow cytometer. As a positive control, 1×10^5 AdrR cells are incubated with 200 nM HB-EGF for 30 minutes on ice, washed twice and incubated with a 1:200 dilution of streptavidin-PE for 45 minutes. To assess background staining from the streptavidin-PE conjugate, cells are incubated with 100 μl of a 1:200 dilution of streptavidin-PE only for 45 minutes.

[5] = test system: ErbB3 phosphorylation in ovarian AdrR cells; experiment: BTC or HRG induced ErbB3 phosphorylation in AdrR cells in vitro; assay type: cell-based, human
Method: Following pre incubation, the media are removed and the cells are stimulated for 5 minutes at 37° C., 5% CO2 with 50 nM BTC or 333 nM TGF-α. HRG controls (5 minutes, 5 nM), 10% serum and 0% serum controls are also used. Cells are washed with 1× cold PBS and lysed in 30 μl cold lysis buffer (M-PER buffer (Pierce) plus sodium vanadate (NaVO4, Sigma), 2-glycerophosphate, phenylarsine oxide, BpV and protease inhibitors) by incubating on ice for 30 minutes. Lysates are stored overnight at −80° C.

B1: Ab #6: human anti-ErbB3 antibody from Fab-phage library, CDRs SEQ ID NOs:7-12; used as IgG1 and IgG2 isotypes; in phase I trials as MM-121 (antibody, V domains shown)
VH: EVQLLESGGGLVQPGGSLRLSCAASGFTFSHYVMAWVRQAPGKGLEWVSSISSSGGWTLYADSVKGRFTISRDNSKNTLYLQMNSLRAEDTAVYYCTRGLKMATIFDYWGQGTLVTVSS
VL: QSALTQPASVSGSPGQSITISCTGTSSDVGSYNVVSWYQQHPGKAPKLIIYEVSQRPSGVSNRFSGSKSGNTASLTISGLQTEDEADYYCCSYAGSSIFVIFGGGTKVTVL
B1 was tested, and the “inhibition of HRG-induced spheroid growth” value (AdrR spheroids; 3.4 nM HRG) was “inhibits the HRG effect”, the “inhibition of spheroid growth” value (AdrR spheroids; day 1 to day 13) was “inhibits spheroid growth in AdrR cells” and the “inhibition of HRG-induced spheroid growth” value (DU145 spheroids) was “inhibits HRG induced spheroid growth”. For the same molecule, the “inhibition of heregulin-mediated signaling” value [1] was “potent inhibitor of heregulin-mediated signaling”, the IC50 ([1]; read-out: IC50, heregulin-mediated phosphorylation of ErbB3) was 24 nM and the IC50 ([1]; read-out: IC50, phosphorylation of AKT) was 67 nM. The “extent of inhibition of phosphorylation of AKT and ErbB3” value ([2]; FIGS. 16A-D, MALME-3M cells and OVCAR8 cells) was “essentially complete inhibiton”, the “inhibition of heregulin-mediated signaling” value ([2]; MALME-3M cells) was “potent inhibitor of heregulin-mediated signaling” and the IC50 ([2]; MALME-3M cells, read-out: IC50, heregulin-mediated phosphorylation of ErbB3) was 15 nM. The IC50 ([2]; MALME-3M cells, read-out: IC50, phosphorylation of AKT) was 11 nM, the “downregulation of ErbB3 on MALME-3M cells” value ([3]; IgG1 isotype) was “about 62%” and the “downregulation of ErbB3 on MALME-3M cells” value ([3]; IgG2 isotype) was “about 66%”. The “inhibition of HB-EGF binding to AdrR cells” value [4] was “does not inhibit this binding”, the “inhibition of betacellulin-mediated phosphorylation of ErbB3” value ([5]; BTC stimulation) was “significantly inhibited” and the “inhibition of heregulin-mediated phosphorylation of ErbB3” value ([5]; HRG stimulation) was “significantly inhibited”.
